# JP2016135753A
# B1: モノクローナル抗体X2F6 (antibody, mouse IgG2a, kappa, V domains shown)
# VH: QVQLQQSGAELVKPGASVKLSCKASGYTFTSYDINWVRQRPEQGLEWIGWIYPGDGSTKYNEKFKGKATLTTDKSSSTAYMQLSRLTSEDSAVYFCASPYYYGSSPFAYWGQGTLVTVSA
# VL: DIQMTQSPASLSASVGETVTITCRASENIYSYLAWYQQKQGKSPQLLVYNAKTLAEGVPSRFSGSGSGTQFSLKINSLQPEDFGSYYCQHHYGTPRTFGGGTKLEIKR
# Target: SLA-1*0401/β2M (HEK293トランスフェクタント細胞表面) (pig) (UniProt Q07717)
# Test: flow cytometry of hybridoma supernatant on SLA-1*0401/β2M HEK293 transfectants
binder,measurement,value
B1,平均蛍光強度(MFI),3000
